Assay results from article doi:10.1101/2022.04.12.488087 (bioRxiv, 2022).

B1: VHH72, previously published nanobody (VHH)
VHH: QVQLQESGGGLVQAGGSLRLSCAASGRTFSEYAMGWFRQAPGKEREFVATISWSGGSTYYTDSVKGRFTISRDNAKNTVYLQMNSLKPDDTAVYYCAAAGLGTVVSEWDYDYDYWGQGTQVTVSS
B2: nanobody 3-2A2-4 (VHH with 6xHis tag, for crystal structural analysis) (VHH)
VHH: QVQLQESGGGLVQPGESLRLSCAASGSISTLNVMGWYRQAPGKQRELVAQITLDGSPEYADSVKGRFTITKDGAQSTLYLQMNNLKPEDTAVYFCKLENGGFFYYWGQGTQVTVST
B3: nanobody Nb70 (VHH with 6xHis tag, for crystal structural analysis) (VHH)
VHH: QVQLVESGGGLVQAGGSLRLSCVASGRTFSRYAMGWFRQAPGKEREFVAVIEWDGGTSYYVDSVKGRFTISRDNAKNTVYLQMNSLKPEDTAVYYCAAGGNQYYSATYSIWNEYDFWGQGTQVTVSS

How the values were obtained:
[1] = target: T1, SARS-CoV-2 wild type receptor binding domain (RBD) (SARS-CoV-2, UniProt P0DTC2); test: SPR
[2] = target: T1, SARS-CoV-2 wild type receptor binding …; test: crystal structure

Row | Binder | binding result [1] | binding result [2]
1 | B1 | binds | 
2 | B2 |  | binds
3 | B3 |  | binds
